Test results taken from IntAct's records for PubMed 31515488.

B1: Keratin, type I cytoskeletal 40 (Homo sapiens), Q6A162 (parent)
chain: MTSDCSSTHCSPESCGTASGCAPASSCSVETACLPGTCATSRCQTPSFLSRSRGLTGCLLPCYFTGSCNSPCLVGNCAWCEDGVFTSNEKETMQFLNDRLASYLEKVRSLEETNAELESRIQEQCEQDIPMVCPDYQRYFNTIEDLQQKILCTKAENSRLAVQLDNCKLATDDFKSKYESELSLRQLLEADISSLHGILEELTLCKSDLEAHVESLKEDLLCLKKNHEEEVNLLREQLGDRLSVELDTAPTLDLNRVLDEMRCQCETVLANNRREAEEWLAVQTEELNQQQLSSAEQLQGCQMEILELKRTASALEIELQAQQSLTESLECTVAETEAQYSSQLAQIQCLIDNLENQLAEIRCDLERQNQEYQVLLDVKARLEGEINTYWGLLDSEDSRLSCSPCSTTCTSSNTCEPCSAYVICTVENCCL

Variants of: B1
Conditions: with wt1_human WT1, P19544
Sequence of wt1_human WT1, P19544 (P19544 whole entry): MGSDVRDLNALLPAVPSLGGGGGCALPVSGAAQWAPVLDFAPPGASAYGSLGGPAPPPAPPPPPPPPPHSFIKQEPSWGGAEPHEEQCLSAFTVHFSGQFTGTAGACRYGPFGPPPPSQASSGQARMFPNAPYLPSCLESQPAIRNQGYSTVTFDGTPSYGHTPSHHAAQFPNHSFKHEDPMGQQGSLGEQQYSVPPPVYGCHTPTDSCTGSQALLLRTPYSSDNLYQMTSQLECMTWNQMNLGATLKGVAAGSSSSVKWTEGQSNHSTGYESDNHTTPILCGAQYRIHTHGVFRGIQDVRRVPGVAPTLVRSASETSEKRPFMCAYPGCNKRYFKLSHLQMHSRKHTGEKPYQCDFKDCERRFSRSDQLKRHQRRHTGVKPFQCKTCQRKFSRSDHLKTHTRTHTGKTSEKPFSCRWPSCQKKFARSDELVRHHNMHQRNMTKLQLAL

Variant	effect of a mutation on the interaction
E286D	with no effect
W390R	with no effect
A115T	with no effect
M303T	with no effect
S102N	with no effect

Variants of: B1
Conditions: with k2c4_human KRT4, P19013
Sequence of k2c4_human KRT4, P19013 (P19013 whole entry): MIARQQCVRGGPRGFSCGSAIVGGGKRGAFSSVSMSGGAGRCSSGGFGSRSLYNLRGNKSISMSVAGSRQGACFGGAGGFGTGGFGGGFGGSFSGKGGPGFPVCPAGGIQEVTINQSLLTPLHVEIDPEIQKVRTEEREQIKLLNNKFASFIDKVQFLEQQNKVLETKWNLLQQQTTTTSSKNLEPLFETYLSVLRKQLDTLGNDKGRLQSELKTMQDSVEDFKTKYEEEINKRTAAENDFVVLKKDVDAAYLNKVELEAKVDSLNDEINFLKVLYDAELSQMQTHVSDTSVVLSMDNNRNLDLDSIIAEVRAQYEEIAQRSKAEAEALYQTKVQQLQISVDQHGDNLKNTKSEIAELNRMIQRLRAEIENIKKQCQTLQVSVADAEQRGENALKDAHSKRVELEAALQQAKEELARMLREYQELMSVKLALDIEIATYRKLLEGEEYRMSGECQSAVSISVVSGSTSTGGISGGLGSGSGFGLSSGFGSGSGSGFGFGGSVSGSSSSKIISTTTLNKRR

Variant	effect of a mutation on the interaction
E286D	with no effect
W390R	with no effect
A115T	with no effect
M303T	with no effect
S102N	with no effect

Variants of: B1
Conditions: with mta1_human MTA1, Q13330
Sequence of mta1_human MTA1, Q13330 (Q13330 whole entry): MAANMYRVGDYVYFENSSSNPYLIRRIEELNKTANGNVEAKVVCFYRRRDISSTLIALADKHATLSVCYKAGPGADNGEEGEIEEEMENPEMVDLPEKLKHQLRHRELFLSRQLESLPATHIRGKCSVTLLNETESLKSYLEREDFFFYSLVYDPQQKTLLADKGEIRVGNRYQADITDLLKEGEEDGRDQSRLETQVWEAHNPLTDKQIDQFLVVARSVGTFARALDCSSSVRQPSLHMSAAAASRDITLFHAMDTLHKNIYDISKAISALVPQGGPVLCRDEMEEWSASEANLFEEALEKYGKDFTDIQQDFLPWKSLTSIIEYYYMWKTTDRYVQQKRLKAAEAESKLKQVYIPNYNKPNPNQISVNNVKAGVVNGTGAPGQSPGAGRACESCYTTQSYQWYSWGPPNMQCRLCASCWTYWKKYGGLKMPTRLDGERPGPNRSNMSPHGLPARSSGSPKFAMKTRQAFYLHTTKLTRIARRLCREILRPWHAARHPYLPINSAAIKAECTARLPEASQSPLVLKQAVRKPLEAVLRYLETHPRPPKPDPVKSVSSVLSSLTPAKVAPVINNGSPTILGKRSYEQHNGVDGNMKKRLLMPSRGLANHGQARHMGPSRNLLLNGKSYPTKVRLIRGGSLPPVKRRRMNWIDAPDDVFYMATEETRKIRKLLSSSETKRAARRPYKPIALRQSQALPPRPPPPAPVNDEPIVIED

Variant	effect of a mutation on the interaction
E286D	with no effect
W390R	with no effect
A115T	with no effect
M303T	with no effect
S102N	with no effect

Variants of: B1
Conditions: with prs8_human PSMC5, P62195
Sequence of prs8_human PSMC5, P62195 (P62195 whole entry): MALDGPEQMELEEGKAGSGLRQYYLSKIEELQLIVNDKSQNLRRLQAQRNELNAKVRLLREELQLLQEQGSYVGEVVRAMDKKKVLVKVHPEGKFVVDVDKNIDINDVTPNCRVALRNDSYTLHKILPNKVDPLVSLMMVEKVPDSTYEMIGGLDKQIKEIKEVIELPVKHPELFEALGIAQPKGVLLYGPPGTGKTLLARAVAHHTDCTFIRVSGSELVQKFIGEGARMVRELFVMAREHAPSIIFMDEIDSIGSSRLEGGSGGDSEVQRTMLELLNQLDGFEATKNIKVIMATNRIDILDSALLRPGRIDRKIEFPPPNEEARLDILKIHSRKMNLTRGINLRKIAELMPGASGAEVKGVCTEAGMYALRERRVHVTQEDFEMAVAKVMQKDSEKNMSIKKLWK

Variant	effect of a mutation on the interaction
E286D	with no effect
W390R	with no effect
A115T	with no effect
M303T	with no effect
S102N	with no effect

Variants of: B1
Conditions: with snai1_human SNAI1, O95863
Sequence of snai1_human SNAI1, O95863 (O95863 whole entry): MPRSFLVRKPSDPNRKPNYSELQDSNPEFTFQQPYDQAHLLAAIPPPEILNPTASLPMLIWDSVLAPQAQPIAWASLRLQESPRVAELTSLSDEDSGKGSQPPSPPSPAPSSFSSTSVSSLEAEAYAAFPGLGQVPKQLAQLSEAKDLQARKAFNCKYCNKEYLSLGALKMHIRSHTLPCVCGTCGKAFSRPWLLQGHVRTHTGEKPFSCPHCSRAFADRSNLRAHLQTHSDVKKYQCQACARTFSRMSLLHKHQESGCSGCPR

Variant	effect of a mutation on the interaction
E286D	with no effect
W390R	with no effect
A115T	with no effect
M303T	with no effect
S102N	with no effect
